Experiment: Viscosity of the surfactant preparation
Type: physicochemical
Details: mixed with a phospholipid mixture consisting of DPPC:POPG 7:3 (w/w)
Text: Advantageously the viscosity of said formulations is less than 20 centiPoise (cP), preferably less than 15 cP, upon determination with a common viscometer available on the market according to methods known in the art.

CWLCRALIKRFNRYLTPQLVCRLVLRC [ox Mini-B27, SP-B analogue of formula (III), shorter analogue of ox Mini-B(Leu)]
viscosity of the preparation: viscous
